This is an account of results in US9932404B2 (Janssen Biotech, Inc., dated 2018).

The test addresses cynomolgus TLR3 (cynomolgus, UniProt A0A2K5WT39). Kind of test: cell-based or functional assay.

B1: mAb 15EVQ (antibody)
heavy: not shown
light: DIQMTQSPSSLSASVGDRVTITCRASQSIGLYLAWYQQKPGKAPKLLIYAASSLQSGVPSRFSGSGSGTDFTLTISSLQPEDFATYYCQQGNTLSYTFGQGTKVEIKRTVAAPSVFIFPPSDEQLKSGTASVVCLLNNFYPREAKVQWKVDNALQSGNSQESVTEQDSKDSTYSLSSTLTLSKADYEKHKVYACEVTHQGLSSPVTKSFNRGEC
Consider B1, for which the “IC50, ISRE reporter gene assay” value worked out at 1.74 µg/mL and the “IC50, NF-κB reporter gene assay” value came to 4.18 µg/mL.
